We go through 1 molecule from article doi:10.1101/2020.05.05.078014.

The target in this data set is T1, Rhed (RNA-binding heme domain of DGCR8), heme-bound (Homo sapiens, UniProt Q8WYQ5 285-478).
T1 sequence: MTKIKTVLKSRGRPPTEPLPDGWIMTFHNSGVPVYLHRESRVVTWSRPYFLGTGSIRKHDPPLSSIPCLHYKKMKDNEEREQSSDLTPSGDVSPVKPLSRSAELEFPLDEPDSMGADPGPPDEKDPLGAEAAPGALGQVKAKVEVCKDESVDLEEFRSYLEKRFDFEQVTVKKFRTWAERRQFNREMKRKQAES
Kind of data set: EMSA.

B1: pri-miR-340 apical stem-loop fragment (structured_RNA)
RNA: GGAGACUGAUUGUCAUAUGUCGUUUGUGGGAUCCGUCUCC
For the molecule B1, binding was characterised by a dissociation constant (Kd) of 3.5 µM.
